Publication PMC8196004
Residue numbers refer to the chain shown, from its start. Names may count otherwise.

T1: PP2A-B55, Q7ZX64
T1 chain: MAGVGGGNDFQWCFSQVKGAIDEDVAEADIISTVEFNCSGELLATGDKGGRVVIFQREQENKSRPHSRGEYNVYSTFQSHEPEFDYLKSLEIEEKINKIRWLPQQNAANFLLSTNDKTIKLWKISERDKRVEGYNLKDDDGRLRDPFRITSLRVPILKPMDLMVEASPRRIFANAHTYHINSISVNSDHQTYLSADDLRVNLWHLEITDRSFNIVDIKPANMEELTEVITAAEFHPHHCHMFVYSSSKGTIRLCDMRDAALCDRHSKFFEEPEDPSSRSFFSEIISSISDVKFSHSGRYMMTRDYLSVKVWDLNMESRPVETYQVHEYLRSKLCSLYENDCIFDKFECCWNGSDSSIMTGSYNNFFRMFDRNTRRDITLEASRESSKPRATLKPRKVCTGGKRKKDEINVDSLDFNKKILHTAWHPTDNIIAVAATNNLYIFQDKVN

B1: 6His-Xenopus Arpp19 (isoform 1), wild type Y68A (protein)
chain: MSGENQETKAQEESSALEQKEIDDKVVSPEKSEEIKLKARYPNLGPKPGGSDFLRKRLQKGVSKKQKAFDSGDYNMAKAKMKNKQLPTAASDKTEVTGDHIPTPQDLPQRKPSLVASKLAG
B2: 6His-Xenopus Arpp19 (isoform 1), wild type Y74A (protein)
chain: B1 chain with A68Y, Y74A
B3: 6His-Xenopus Arpp19 (isoform 1), wild type S71T (protein)
chain: B1 chain with A68Y, S71T
B4: 6His-Xenopus Arpp19 (isoform 1), wild type D73A (protein)
chain: B1 chain with A68Y, D73A
B5: 6His-Xenopus Arpp19 (isoform 1), wild type K67A (protein)
chain: B1 chain with K67A, A68Y
B6: 6His-Xenopus Arpp19 (isoform 1), wild type Q66A (protein)
chain: B1 chain with Q66A, A68Y
B7: 6His-Xenopus Arpp19 (isoform 1), wild type G72A (protein)
chain: B1 chain with A68Y, G72A
B8: 6His-Xenopus Arpp19 (isoform 1), wild type D70A (protein)
chain: B1 chain with A68Y, D70A
B9: 6His-Xenopus Arpp19 (isoform 1), wild type F69A (protein)
chain: B1 chain with A68Y, F69A
B10: 6His-Xenopus Arpp19 (isoform 1), wild type G72A; S71T (protein)
chain: B1 chain with A68Y, S71T, G72A
B11: 6His-Xenopus Arpp19 (isoform 1), wild type G72A; S71A (protein)
chain: B1 chain with A68Y, S71A, G72A
B12: 6His-Xenopus Arpp19 (isoform 1), wild type T103A; P104A (protein)
chain: B1 chain with A68Y, T103A, P104A
B13: 6His-Xenopus Arpp19 (isoform 1), wild type T103A; P104A; D106A; L107A; P108A; Q109A (protein)
chain: B1 chain with A68Y, T103A, P104A, D106A, L107A, P108A, Q109A

Target: T1, PP2A-B55, Q7ZX64
Experiment: His pull-down, western blot quantification
Conditions: chain shown with the change; 20 ng His-Arpp19; panel titled Phospho-Arpp19; parent: est. 0.98; read off a plot
In the case of B1, the response is reported as 0.16 AU.
In the case of B2, the response is reported as 0.09 AU.
B3 showed a response of 0.21 AU.
B4 was tested, and the response was 0.16 AU.
In the case of B5, the response is reported as 0.52 AU.
B6 showed a response of 0.86 AU.
Work on B7 yielded a response of 1.4 AU.
In the case of B8, the response is reported as 0.14 AU.
Work on B9 yielded a response of 0.04 AU.

Same assay, conditions: chain shown with the change; Arpp19 thio-phosphorylated at S67/S71 (ATPγS and recombinant Gwl kinase); parent: est. 1.0; read off a plot
B1 showed a response of 0.18 AU.
For B2, the response was 0.11 AU.
For B3, the response was 0.13 AU.
B4 gave a response of 0.15 AU.
For B8, the response was 0.04 AU.
Binder B9 has a response of 0.08 AU.

Same assay, conditions: chain shown with the change;; parent: est. 0.83; read off a plot
B7 was tested, and the response was 1.2 AU.
In the case of B10, the response is reported as 0.08 AU.
For B11, the response was 0.16 AU.

Same assay, conditions: chain shown with the change;; parent: est. 0.90; read off a plot
With B12 the response was 0.57 AU.
B13 was tested, and the response was 0.36 AU.
